Read-outs that look alike come from different tables or passages of the source.
Tests used:
Experiment in all cases: cell-based or functional assay
[1] = target: SARS-CoV-2 spike (S) protein, Omicron BA.2.75 (SARS-CoV-2) (UniProt P0DTC2)
[2] = target: SARS-CoV-2 Delta spike (S) protein (SARS-CoV-2) (UniProt P0DTC2)
[3] = target: SARS-CoV-2 spike (S) protein, Omicron BA.1.1 (SARS-CoV-2) (UniProt P0DTC2)
[4] = target: SARS-CoV-2 Omicron BA.2 spike (S) protein (SARS-CoV-2) (UniProt P0DTC2)
[5] = target: SARS-CoV-2 spike (S) protein, Omicron BA.4/5 (SARS-CoV-2) (UniProt P0DTC2)
[6] = target: SARS-CoV-2 spike (S) protein, Omicron BA.3 (SARS-CoV-2) (UniProt P0DTC2)
[7] = target: SARS-CoV-2 spike (S) protein, Victoria strain (SARS-CoV-2) (UniProt P0DTC2)
[8] = target: SARS-CoV-2 Beta spike (S) protein (SARS-CoV-2) (UniProt P0DTC2)
[9] = target: SARS-CoV-2 spike (S) protein, Omicron BA.1 (SARS-CoV-2) (UniProt P0DTC2)
[10] = target: SARS-CoV-2 Alpha spike (S) protein (SARS-CoV-2) (UniProt P0DTC2)
[11] = target: SARS-CoV-2 Omicron BA.1 spike (S) protein of the live isolate (SARS-CoV-2) (UniProt P0DTC2)
[12] = target: SARS-CoV-2 Omicron BA.1.1 spike (S) protein (SARS-CoV-2) (UniProt P0DTC2)
[13] = target: SARS-CoV-2 Victoria spike (S) protein (SARS-CoV-2) (UniProt P0DTC2)
[14] = target: SARS-CoV-2 Gamma spike (S) protein (SARS-CoV-2) (UniProt P0DTC2)
[15] = target: SARS-CoV-2 spike (S) protein, Omicron BA.4.6 (SARS-CoV-2) (UniProt P0DTC2)
[16] = target: SARS-CoV-2 spike (S) protein, Omicron BA.2 (SARS-CoV-2) (UniProt P0DTC2)
[17] = target: SARS-CoV-2 spike (S) protein, Omicron BA.2.75.2 (SARS-CoV-2) (UniProt P0DTC2)
[18] = target: SARS-CoV-2 spike (S) protein, Omicron BA.2.75 (SARS-CoV-2) (UniProt P0DTC2); remark: listed apart in the source
[19] = target: SARS-CoV-2 spike (S) protein, Omicron BJ.1 (SARS-CoV-2) (UniProt P0DTC2)
[20] = target: SARS-CoV-2 spike (S) protein, Omicron BA.2.3.20 (SARS-CoV-2) (UniProt P0DTC2)
[21] = target: SARS-CoV-2 spike (S) protein, Omicron BA.4/5 (SARS-CoV-2) (UniProt P0DTC2); remark: listed apart in the source
[22] = target: SARS-CoV-2 spike (S) protein, Victoria strain (SARS-CoV-2) (UniProt P0DTC2); remark: listed apart in the source
[23] = target: SARS-CoV-2 spike (S) protein, Omicron BA.4.6 (SARS-CoV-2) (UniProt P0DTC2); remark: listed apart in the source
[24] = target: SARS-CoV-2 spike (S) protein, Omicron BA.2 (SARS-CoV-2) (UniProt P0DTC2); remark: listed apart in the source
[25] = target: SARS-CoV-2 Omicron BA.1 spike (S) protein, pseudovirus construct (SARS-CoV-2) (UniProt P0DTC2)
[26] = target: SARS-CoV-2 Omicron BA.1.1 spike (S) protein, pseudovirus construct (SARS-CoV-2) (UniProt P0DTC2)
[27] = target: SARS-CoV-2 Omicron BA.2 spike (S) protein, pseudovirus construct (SARS-CoV-2) (UniProt P0DTC2)
[28] = target: SARS-CoV-2 Omicron BA.3 spike (S) protein, pseudovirus construct (SARS-CoV-2) (UniProt P0DTC2)

Chain of Known Antibody D (AZD8895) (VH): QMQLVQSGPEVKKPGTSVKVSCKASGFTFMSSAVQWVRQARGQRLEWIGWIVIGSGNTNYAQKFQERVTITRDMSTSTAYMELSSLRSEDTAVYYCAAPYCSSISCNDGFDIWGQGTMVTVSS
Chain of Known Antibody D (AZD8895) (VL): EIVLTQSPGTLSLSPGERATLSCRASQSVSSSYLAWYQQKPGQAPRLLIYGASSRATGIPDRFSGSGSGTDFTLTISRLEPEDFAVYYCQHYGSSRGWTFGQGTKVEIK

Row | Substance | pseudovirus neutralisation IC50 [1] [µg/mL] | IC50, authentic virus neutralization [2] [µg/mL] | IC50, pseudoviral neutralization [3] [µg/mL] | pseudovirus neutralisation IC50 [3] [µg/mL] | IC50, authentic virus neutralization [4] [µg/mL] | IC50, pseudoviral neutralization [5] [µg/mL] | pseudovirus neutralisation IC50 [5] [µg/mL] | IC50, pseudoviral neutralization [6] [µg/mL] | pseudovirus neutralisation IC50 [6] [µg/mL] | IC50, pseudoviral neutralization [7] [µg/mL] | pseudovirus neutralisation IC50 [7] [µg/mL] | IC50, authentic virus neutralization [8] [µg/mL] | IC50, pseudoviral neutralization [9] [µg/mL] | pseudovirus neutralisation IC50 [9] [µg/mL] | IC50, authentic virus neutralization [10] [µg/mL] | IC50 (ug/ml), pseudovirus [25] [µg/mL] | IC50 (ug/ml), pseudovirus [26] [µg/mL] | IC50 (ug/ml), pseudovirus [27] [µg/mL] | IC50 (ug/ml), pseudovirus [28] [µg/mL] | IC50 (ug/ml), pseudovirus [13] [µg/mL] | other results
1 | ADG10 (antibody) | > 10 | 0.026 | > 10 | > 10 | > 10 | > 10 | > 10 | > 10 | > 10 | 0.007 | 0.007 | 0.011 | > 10 | > 10 | 0.01 |  |  |  |  |  | IC50, authentic virus neutralization [11]: > 10 µg/mL; IC50, authentic virus neutralization [12]: > 10 µg/mL; IC50, authentic virus neutralization [13]: 0.006 µg/mL; IC50, authentic virus neutralization [14]: 0.003 µg/mL; IC50, pseudoviral neutralization [15]: > 10 µg/mL; IC50, pseudoviral neutralization [16]: > 10 µg/mL; pseudovirus neutralisation IC50 [16]: > 10 µg/mL
2 | ADG30 (antibody) | > 10 | 0.033 | > 10 | > 10 | > 10 | > 10 | > 10 | > 10 | > 10 | 0.014 | 0.014 | 0.029 | > 10 | > 10 | 0.016 |  |  |  |  |  | IC50, authentic virus neutralization [11]: > 10 µg/mL; IC50, authentic virus neutralization [12]: > 10 µg/mL; IC50, authentic virus neutralization [13]: 0.007 µg/mL; IC50, authentic virus neutralization [14]: 0.002 µg/mL; IC50, pseudoviral neutralization [15]: > 10 µg/mL; IC50, pseudoviral neutralization [16]: > 10 µg/mL; pseudovirus neutralisation IC50 [16]: > 10 µg/mL
3 | AZD7442 | 0.017 |  | 0.806 | 0.806 |  | 0.065 | 0.065 | 0.065 | 0.065 | 0.001 | 0.001 |  | 0.232 | 0.232 |  |  |  |  |  |  | IC50, pseudoviral neutralization [15]: > 10 µg/mL; IC50, pseudoviral neutralization [16]: 0.008 µg/mL; pseudovirus neutralisation IC50 [16]: 0.008 µg/mL
4 | AZD7442 (a combination of AZD8895 and AZD1061) |  |  |  |  |  |  |  |  |  |  |  |  |  |  |  |  |  |  |  |  | IC50, pseudoviral neutralization [17]: > 10 µg/mL; IC50, pseudoviral neutralization [18]: 0.017 µg/mL; IC50, pseudoviral neutralization [19]: 2.73 µg/mL; IC50, pseudoviral neutralization [20]: 0.025 µg/mL; IC50, pseudoviral neutralization [21]: 0.065 µg/mL; IC50, pseudoviral neutralization [22]: 0.001 µg/mL; IC50, pseudoviral neutralization [23]: > 10 µg/mL; IC50, pseudoviral neutralization [24]: 0.008 µg/mL
5 | AZD7442 (antibody) |  | 0.005 |  |  | 0.052 |  |  |  |  |  |  | 0.012 |  |  | 0.007 |  |  |  |  |  | IC50, authentic virus neutralization [11]: 0.273 µg/mL; IC50, authentic virus neutralization [12]: 3.82 µg/mL; IC50, authentic virus neutralization [13]: 0.009 µg/mL; IC50, authentic virus neutralization [14]: 0.006 µg/mL
6 | Known Antibody A (REGN 10987) |  |  |  |  |  |  |  |  |  |  |  |  |  |  |  | > 10 | > 10 | 0.616 | > 10 | 0.002 | 
7 | Known Antibody B (REGN 10933) |  |  |  |  |  |  |  |  |  |  |  |  |  |  |  | > 10 | > 10 | > 10 | > 10 | 0.001 | 
8 | Known Antibody C (AZD1061) |  |  |  |  |  |  |  |  |  |  |  |  |  |  |  | 0.308 | > 10 | 0.008 | 0.019 | 0.002 | 
9 | Known Antibody D (AZD8895) |  |  |  |  |  |  |  |  |  |  |  |  |  |  |  | 0.246 | 0.1 | 1.33 | > 10 | 0.001 | 
